Source: patent publication US20210388087A1 (Chugai, published 2021)

T1: Human CD3eg linker (human)
T1 construct: single-chain construct; also called recombinant human CD3
T1 chain: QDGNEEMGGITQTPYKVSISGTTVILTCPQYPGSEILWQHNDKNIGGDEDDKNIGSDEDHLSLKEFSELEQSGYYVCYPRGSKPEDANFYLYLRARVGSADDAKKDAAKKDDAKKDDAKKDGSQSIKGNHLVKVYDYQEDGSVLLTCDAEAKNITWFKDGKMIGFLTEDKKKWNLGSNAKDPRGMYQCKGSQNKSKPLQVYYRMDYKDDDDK


Tests used:
[1] = molecular target: T1, Human CD3eg linker; assay: SPR, vs unmutated H183/L072
[2] = molecular target: T2, CD3 epsilon homodimer protein (UniProt P07766 23-126); assay: SPR (Biacore T200), CD3 epsilon homodimer on CM4 chip, one-arm antibody as analyte, 25 C;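 also: homodimer attached to the sensor surface via amine coupling, HBS-EP+ used as running buffer during binding runs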
T2 construct: immobilized on Sensor chip CM4 by amine coupling; also called CD3 (CD3 epsilon)
T2 sequence (P07766 23-126): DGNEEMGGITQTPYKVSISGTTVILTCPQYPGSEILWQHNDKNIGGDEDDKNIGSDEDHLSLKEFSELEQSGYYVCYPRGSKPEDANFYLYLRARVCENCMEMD

| Binder | fold change of affinity [1] [fold] | ratio of amounts bound (altered form / CE115HA000) [2] |
| --- | --- | --- |
| CE115HA000 H35A one-arm antibody (antibody, human IgG1, kappa, L234A L235A, N297A, name in Kabat numbering) heavy: QVQLVESGGGVVQPGRSLRLSCAASGFTFSNAWMAWVRQAPGKGLEWVAQIKAKSNNYATYYAESVKGRFTISRDDSKNSLYLQMNSLKTEDTAVYYCRYVHYGAYYGVDAWGQGTTVTVSSASTKGPSVFPLAPSSKSTSGGTAALGCLVKDYFPEPVTVSWNSGALTSGVHTFPAVLQSSGLYSLSSVVTVPSSSLGTQTYICNVNHKPSNTKVDKKVEPKSCDKTHTCPPCPAPEAAGGPSVFLFPPKPKDTLMISRTPEVTCVVVDVSHEDPEVKFNWYVDGVEVHNAKTKPREEQYASTYRVVSVLTVLHQDWLNGKEYKCKVSNKALPAPIEKTISKAKGQPREPQVYTLPPSRCELTKNQVSLSCAVKGFYPSDIAVEWESNGQPENNYKTTPPVLDSDGSFFLVSKLTVDKSRWQQGNVFSCSVMHEALHNHYTQKSLSLSPDYKDDDDK EPKSSDKTHTCPPCPAPELLGGPSVFLFPPKPKDTLMISRTPEVTCVVVDVSHEDPEVKFNWYVDGVEVHNAKTKPREEQYNSTYRVVSVLTVLHQDWLNGKEYKCKVSNKALPAPIEKTISKAKGQPREPQVCTLPPSRDELTKNQVSLWCLVKGFYPSDIAVEWESNGQPENNYKTTPPVLDSDGSFFLYSKLTVDKSRWQQGNVFSCSVMHEALHNRYTQKSLSLSP light: DIVMTQSPLSLPVTPGEPASISCRSSQSLVHSNRNTYLHWYQQKPGQAPRLLIYKVSNRFSGVPDRFSGSGSGTDFTLKISRVEAEDVGVYYCGQGTQVPYTFGQGTKLEIKRTVAAPSVFIFPPSDEQLKSGTASVVCLLNNFYPREAKVQWKVDNALQSGNSQESVTEQDSKDSTYSLSSTLTLSKADYEKHKVYACEVTHQGLSSPVTKSFNRGEC |  | 0.17 |
| CE115HA000 A32Y one-arm antibody (antibody, human IgG1, kappa, L234A L235A, N297A, name in Kabat numbering) heavy: QVQLVESGGGVVQPGRSLRLSCAASGFTFSNYWMHWVRQAPGKGLEWVAQIKAKSNNYATYYAESVKGRFTISRDDSKNSLYLQMNSLKTEDTAVYYCRYVHYGAYYGVDAWGQGTTVTVSSASTKGPSVFPLAPSSKSTSGGTAALGCLVKDYFPEPVTVSWNSGALTSGVHTFPAVLQSSGLYSLSSVVTVPSSSLGTQTYICNVNHKPSNTKVDKKVEPKSCDKTHTCPPCPAPEAAGGPSVFLFPPKPKDTLMISRTPEVTCVVVDVSHEDPEVKFNWYVDGVEVHNAKTKPREEQYASTYRVVSVLTVLHQDWLNGKEYKCKVSNKALPAPIEKTISKAKGQPREPQVYTLPPSRCELTKNQVSLSCAVKGFYPSDIAVEWESNGQPENNYKTTPPVLDSDGSFFLVSKLTVDKSRWQQGNVFSCSVMHEALHNHYTQKSLSLSPDYKDDDDK EPKSSDKTHTCPPCPAPELLGGPSVFLFPPKPKDTLMISRTPEVTCVVVDVSHEDPEVKFNWYVDGVEVHNAKTKPREEQYNSTYRVVSVLTVLHQDWLNGKEYKCKVSNKALPAPIEKTISKAKGQPREPQVCTLPPSRDELTKNQVSLWCLVKGFYPSDIAVEWESNGQPENNYKTTPPVLDSDGSFFLYSKLTVDKSRWQQGNVFSCSVMHEALHNRYTQKSLSLSP light: DIVMTQSPLSLPVTPGEPASISCRSSQSLVHSNRNTYLHWYQQKPGQAPRLLIYKVSNRFSGVPDRFSGSGSGTDFTLKISRVEAEDVGVYYCGQGTQVPYTFGQGTKLEIKRTVAAPSVFIFPPSDEQLKSGTASVVCLLNNFYPREAKVQWKVDNALQSGNSQESVTEQDSKDSTYSLSSTLTLSKADYEKHKVYACEVTHQGLSSPVTKSFNRGEC |  | 0.33 |
| CE115HA000 A52aG one-arm antibody (antibody, human IgG1, kappa, L234A L235A, N297A, name in Kabat numbering) heavy: QVQLVESGGGVVQPGRSLRLSCAASGFTFSNAWMHWVRQAPGKGLEWVAQIKGKSNNYATYYAESVKGRFTISRDDSKNSLYLQMNSLKTEDTAVYYCRYVHYGAYYGVDAWGQGTTVTVSSASTKGPSVFPLAPSSKSTSGGTAALGCLVKDYFPEPVTVSWNSGALTSGVHTFPAVLQSSGLYSLSSVVTVPSSSLGTQTYICNVNHKPSNTKVDKKVEPKSCDKTHTCPPCPAPEAAGGPSVFLFPPKPKDTLMISRTPEVTCVVVDVSHEDPEVKFNWYVDGVEVHNAKTKPREEQYASTYRVVSVLTVLHQDWLNGKEYKCKVSNKALPAPIEKTISKAKGQPREPQVYTLPPSRCELTKNQVSLSCAVKGFYPSDIAVEWESNGQPENNYKTTPPVLDSDGSFFLVSKLTVDKSRWQQGNVFSCSVMHEALHNHYTQKSLSLSPDYKDDDDK EPKSSDKTHTCPPCPAPELLGGPSVFLFPPKPKDTLMISRTPEVTCVVVDVSHEDPEVKFNWYVDGVEVHNAKTKPREEQYNSTYRVVSVLTVLHQDWLNGKEYKCKVSNKALPAPIEKTISKAKGQPREPQVCTLPPSRDELTKNQVSLWCLVKGFYPSDIAVEWESNGQPENNYKTTPPVLDSDGSFFLYSKLTVDKSRWQQGNVFSCSVMHEALHNRYTQKSLSLSP light: DIVMTQSPLSLPVTPGEPASISCRSSQSLVHSNRNTYLHWYQQKPGQAPRLLIYKVSNRFSGVPDRFSGSGSGTDFTLKISRVEAEDVGVYYCGQGTQVPYTFGQGTKLEIKRTVAAPSVFIFPPSDEQLKSGTASVVCLLNNFYPREAKVQWKVDNALQSGNSQESVTEQDSKDSTYSLSSTLTLSKADYEKHKVYACEVTHQGLSSPVTKSFNRGEC |  | 0.81 |
| CE115HA000 A52aD one-arm antibody (antibody, human IgG1, kappa, L234A L235A, N297A, name in Kabat numbering) heavy: QVQLVESGGGVVQPGRSLRLSCAASGFTFSNAWMHWVRQAPGKGLEWVAQIKDKSNNYATYYAESVKGRFTISRDDSKNSLYLQMNSLKTEDTAVYYCRYVHYGAYYGVDAWGQGTTVTVSSASTKGPSVFPLAPSSKSTSGGTAALGCLVKDYFPEPVTVSWNSGALTSGVHTFPAVLQSSGLYSLSSVVTVPSSSLGTQTYICNVNHKPSNTKVDKKVEPKSCDKTHTCPPCPAPEAAGGPSVFLFPPKPKDTLMISRTPEVTCVVVDVSHEDPEVKFNWYVDGVEVHNAKTKPREEQYASTYRVVSVLTVLHQDWLNGKEYKCKVSNKALPAPIEKTISKAKGQPREPQVYTLPPSRCELTKNQVSLSCAVKGFYPSDIAVEWESNGQPENNYKTTPPVLDSDGSFFLVSKLTVDKSRWQQGNVFSCSVMHEALHNHYTQKSLSLSPDYKDDDDK EPKSSDKTHTCPPCPAPELLGGPSVFLFPPKPKDTLMISRTPEVTCVVVDVSHEDPEVKFNWYVDGVEVHNAKTKPREEQYNSTYRVVSVLTVLHQDWLNGKEYKCKVSNKALPAPIEKTISKAKGQPREPQVCTLPPSRDELTKNQVSLWCLVKGFYPSDIAVEWESNGQPENNYKTTPPVLDSDGSFFLYSKLTVDKSRWQQGNVFSCSVMHEALHNRYTQKSLSLSP light: DIVMTQSPLSLPVTPGEPASISCRSSQSLVHSNRNTYLHWYQQKPGQAPRLLIYKVSNRFSGVPDRFSGSGSGTDFTLKISRVEAEDVGVYYCGQGTQVPYTFGQGTKLEIKRTVAAPSVFIFPPSDEQLKSGTASVVCLLNNFYPREAKVQWKVDNALQSGNSQESVTEQDSKDSTYSLSSTLTLSKADYEKHKVYACEVTHQGLSSPVTKSFNRGEC |  | 1.34 |

Further lines, results first:

| fold change of affinity [1] [fold] | ratio of amounts bound (altered form / CE115HA000) [2] | Binder |
| --- | --- | --- |
| 0.2 |  | dBBDu183H Y97W/dBBDu072L (antibody, name in Kabat numbering, V domains shown) VH: QVQLVESGGGLVQPGRSLRLSCAASGFTFSNAWMHWVRQAPGKGLEWVAQIKDKGNAYAAYYAPSVKGRFTISRDDSKNSIYLQMNSLKTEDTAVYYCHYVHWASASTVLPAFGVDAWGQGTTVTVSS VL: DIVMTQSPLSLPVTPGEPASISCQASQELVHMNRNTYLHWYQQKPGQAPRLLIYKVSNRFPGVPDRFSGSGSGTDFTLKISRVEAEDVGVYYCAQGTSVPFTFGQGTKLEIK |
|  | 0.15 | CE115HA000 A52aP one-arm antibody (antibody, human IgG1, kappa, L234A L235A, N297A, name in Kabat numbering) heavy: QVQLVESGGGVVQPGRSLRLSCAASGFTFSNAWMHWVRQAPGKGLEWVAQIKPKSNNYATYYAESVKGRFTISRDDSKNSLYLQMNSLKTEDTAVYYCRYVHYGAYYGVDAWGQGTTVTVSSASTKGPSVFPLAPSSKSTSGGTAALGCLVKDYFPEPVTVSWNSGALTSGVHTFPAVLQSSGLYSLSSVVTVPSSSLGTQTYICNVNHKPSNTKVDKKVEPKSCDKTHTCPPCPAPEAAGGPSVFLFPPKPKDTLMISRTPEVTCVVVDVSHEDPEVKFNWYVDGVEVHNAKTKPREEQYASTYRVVSVLTVLHQDWLNGKEYKCKVSNKALPAPIEKTISKAKGQPREPQVYTLPPSRCELTKNQVSLSCAVKGFYPSDIAVEWESNGQPENNYKTTPPVLDSDGSFFLVSKLTVDKSRWQQGNVFSCSVMHEALHNHYTQKSLSLSPDYKDDDDK EPKSSDKTHTCPPCPAPELLGGPSVFLFPPKPKDTLMISRTPEVTCVVVDVSHEDPEVKFNWYVDGVEVHNAKTKPREEQYNSTYRVVSVLTVLHQDWLNGKEYKCKVSNKALPAPIEKTISKAKGQPREPQVCTLPPSRDELTKNQVSLWCLVKGFYPSDIAVEWESNGQPENNYKTTPPVLDSDGSFFLYSKLTVDKSRWQQGNVFSCSVMHEALHNRYTQKSLSLSP light: DIVMTQSPLSLPVTPGEPASISCRSSQSLVHSNRNTYLHWYQQKPGQAPRLLIYKVSNRFSGVPDRFSGSGSGTDFTLKISRVEAEDVGVYYCGQGTQVPYTFGQGTKLEIKRTVAAPSVFIFPPSDEQLKSGTASVVCLLNNFYPREAKVQWKVDNALQSGNSQESVTEQDSKDSTYSLSSTLTLSKADYEKHKVYACEVTHQGLSSPVTKSFNRGEC |
|  | 0.57 | CE115HA000 A52aE one-arm antibody (antibody, human IgG1, kappa, L234A L235A, N297A, name in Kabat numbering) heavy: QVQLVESGGGVVQPGRSLRLSCAASGFTFSNAWMHWVRQAPGKGLEWVAQIKEKSNNYATYYAESVKGRFTISRDDSKNSLYLQMNSLKTEDTAVYYCRYVHYGAYYGVDAWGQGTTVTVSSASTKGPSVFPLAPSSKSTSGGTAALGCLVKDYFPEPVTVSWNSGALTSGVHTFPAVLQSSGLYSLSSVVTVPSSSLGTQTYICNVNHKPSNTKVDKKVEPKSCDKTHTCPPCPAPEAAGGPSVFLFPPKPKDTLMISRTPEVTCVVVDVSHEDPEVKFNWYVDGVEVHNAKTKPREEQYASTYRVVSVLTVLHQDWLNGKEYKCKVSNKALPAPIEKTISKAKGQPREPQVYTLPPSRCELTKNQVSLSCAVKGFYPSDIAVEWESNGQPENNYKTTPPVLDSDGSFFLVSKLTVDKSRWQQGNVFSCSVMHEALHNHYTQKSLSLSPDYKDDDDK EPKSSDKTHTCPPCPAPELLGGPSVFLFPPKPKDTLMISRTPEVTCVVVDVSHEDPEVKFNWYVDGVEVHNAKTKPREEQYNSTYRVVSVLTVLHQDWLNGKEYKCKVSNKALPAPIEKTISKAKGQPREPQVCTLPPSRDELTKNQVSLWCLVKGFYPSDIAVEWESNGQPENNYKTTPPVLDSDGSFFLYSKLTVDKSRWQQGNVFSCSVMHEALHNRYTQKSLSLSP light: DIVMTQSPLSLPVTPGEPASISCRSSQSLVHSNRNTYLHWYQQKPGQAPRLLIYKVSNRFSGVPDRFSGSGSGTDFTLKISRVEAEDVGVYYCGQGTQVPYTFGQGTKLEIKRTVAAPSVFIFPPSDEQLKSGTASVVCLLNNFYPREAKVQWKVDNALQSGNSQESVTEQDSKDSTYSLSSTLTLSKADYEKHKVYACEVTHQGLSSPVTKSFNRGEC |
